Data published in patent US20110195072A1, “NON-NEUROENDOCRINE CANCER THERAPY” (priority 2006, published 2011).

B1: GDNF: glial-derived neurotrophic factor, specific ligand of Ret (450-10, PeProTech) (protein, UniProt P39905 78-211, looked up)
Glial cell line-derived …: SPDKQMAVLPRRERNRQAAAANPENSRGKGRRGQRGKNRGCVLTAIHLNVTDLGLGYETKEELIFRYCSGSCDAAETTYDKILKNLSRNRRLVSDKVGQACCRPIAFDDDLSFLDDNLVYHILRKHSAKRCGCI
modifications: recombinant, PeProTech

Tests used:
Format in all cases: cell-based, human
[1] = system: MCF7 cells; assay: GDNF-induced Erk (MAPK) activation after siRNA transfection, immunoblot; settings: 72 hrs after siRNA transfection, 10 ng/ml GDNF for 10 min
Experimental: (§1) MCF7 and T47D cells are seeded at 5×10^5/4 ml in 6 cm plates for 24 hrs. Cells are transfected with siRNAs targeting Ret (siRet1: […] siRet2: […]; Qiagen) or a control siRNA targeting LacZ ([…]) using Oligofectamine (12252-011, Invitrogen) and HiPerFect, respectively. After 72 hrs, cells are stimulated with 10 ng/ml GDNF alone (for 10 min in MCF7) or together with 100 ng/ml GFRα1 (for 30 min in T47D; rhGFRα1/Fc chimera 714-GR, R&D Systems), extracted and resolved by 12.5% SDS-PAGE electrophoresis and immunoblot analysis is performed using rabbit polyclonal antibodies against Erk (MAPK) and phospho-Erk (p-MAPK: see FIG. 7).

[2] = system: T47D cells; assay: as above; settings: 72 hrs after siRNA transfection, 10 ng/ml GDNF with 100 ng/ml GFRα1 for 30 min
Experimental: as §1

[3] = system: Ret; assay: Ret expression after siRNA transfection (Western blot and PCR) in MCF7 cells; settings: 20 nM siRNA
Experimental: MCF7 cells are seeded at a density of 10^5 cells/well in 6 well plates. 24 hours after seeding, cells are transfected with control lacZ siRNA or Ret siRNA (Qiagen, 96165/96166) at a final siRNA concentration of 20 nM using HiPerFect transfection reagent (Qiagen, 301705). siRNA targeting sequences are as following:
Ret9 and Ret51 protein expression is analyzed 72 hours post siRNA transfection using polyclonal antibodies from Santa Cruz (C-19 against Ret9: sc-167; C-20 against Ret51: sc-1290) and direct Western Blot analysis with 50 μg of total protein extract (FIG. 2 Panel A). […] As a control, total RNA is extracted in a parallel experiment (RNeasy, 74104, Qiagen). First-strand cDNA is synthesized using SuperScript III First-Strand Synthesis System for RT-PCR (Invitrogen, 18080-051), using random hexamer primers.

[4] = system: MCF7 cells; assay: Anchorage-independent cell proliferation (polyheme assay); settings: 10 ng/ml GDNF alone for 4 days, polyheme-coated plates
Experimental: (§2) MCF7 and T47D cells are seeded at 5×10^5/4 ml in 6 cm plates coated with polyheme (P3932, Sigma) to prevent adhesion of the cells to the substratum. Cells are treated with 10 ng/ml GDNF alone (MCF7) or together with 100 ng/ml GFRα1 (T47D) for 4 days. Cells were collected, trypsinized and counted (Vi-cell XR, Beckman Coulter).
(§3) MCF7 and T47D cells are seeded at 10^6/4 ml in 6 cm plates coated with polyheme. Cells are pretreated with 100 nM of a Ret inhibitor [repeat name of compound from earlier] or the vehicle DMSO for 1 hr, and then treated with 10 ng/ml GDNF alone (MCF7) or together with 100 ng/ml GFRα1 (T47D) for 4 days. Cells are collected, trypsinized and counted (Vi-cell XR, Beckman Coulter).

[5] = system: T47D cells; assay: as above; settings: 10 ng/ml GDNF with 100 ng/ml GFRα1 for 4 days, polyheme-coated plates
Experimental: as §2, §3

[6] = system: MCF7 cells; assay: GDNF stimulation of Erk and JNK/SAPK phosphorylation, immunoblot; settings: 100 ng/ml GDNF, 5 min to 8 hrs
Experimental: (§4) MCF7 and T47D cells are seeded at 3×10^6/15 ml and 3×10^6/10 ml in 15 and 10 cm plates for 2 days respectively. Cells are serum deprived (0.1% FCS) for 16 to 24 hrs or refed with normal medium. Cells are stimulated with 100 ng/ml GDNF (450-10, PeProTech) for 5, 10, 20, or 30 min 1, 4 or 8 hrs. Cell extracts are resolved by 10 or 12.5% SDS-PAGE electrophoresis and immunoblot analysis is performed using rabbit polyclonal antibodies raised against Erk (MAPK: 9102, Cell Signaling Technology) phospho-Erk (P-MAPK: […]; 9101) JNK/SAPK (9251) and phospho-JNK/phospho-SAP (Thr183/Tyr185; 9252) (see FIG. 6).

[7] = system: T47D cells; assay: as above; settings: 100 ng/ml GDNF, 5 min to 8 hrs
Experimental: as §4

[8] = system: MCF7 cells; assay: Soft agar colony assay (anchorage-independent proliferation); settings: 10 or 100 ng/ml GDNF alone, every week for 4 weeks
Experimental: (§5) MCF7 and T47D cells are treated with 10 or 100 ng/ml GDNF alone (MCF7) or together with 100 ng/ml GFRα1 (T47D) for 10 to 20 min in suspension and subsequently seeded at 10^5/2 ml in 6-well plates in a soft agar layer. Cells are treated again with GDNF alone or together with GFRα1 every week for 4 weeks in fresh medium. Colonies are stained with nitrotetrazolium blue and counted (Artek counter 880, Dynatech Laboratories).

[9] = system: T47D cells; assay: as above; settings: 10 or 100 ng/ml GDNF with 100 ng/ml GFRα1, every week for 4 weeks
Experimental: as §5

Molecule | GDNF-induced activation of Erk (MAPK) [1] | GDNF-induced activation of Erk (MAPK) [2] | Ret9 protein expression (Western blot signal) ([3]; 72 hours post transfection, antibody C-19) | Ret51 protein expression (Western blot signal) ([3]; 72 hours post transfection, antibody C-20) | Ret mRNA expression (PCR) ([3]; parallel experiment) | anchorage-independent cell proliferation (cell count) [4] | anchorage-independent cell proliferation (cell count) [5] | phosphorylation of Erk [6] | phosphorylation of JNK/SAPK [6] | phosphorylation of Erk [7] | phosphorylation of JNK/SAPK [7] | number of colonies in soft agar [8] | number of colonies in soft agar [9]
siRet2: siRNA targeting Ret, TAGGCTGGTTCTCAACCGGAA (Qiagen) (target sequence only, siRNA duplex strands not listed, further chemistry not given here) | prevents | prevents | – | – | – | – | – | – | – | – | – | – | –
siRet1: siRNA targeting Ret, targeting sequence CCGCTGGTGGACTGTAATAAT (Qiagen) (target sequence only, siRNA duplex strands not listed, further chemistry not given here) | prevents | prevents | reduction in signal | reduction in signal | reduction in Ret mRNA | – | – | – | – | – | – | – | –
B1 | – | – | – | – | – | significantly enhances | significantly enhances | increased phosphorylation | increased phosphorylation | increased phosphorylation | increased phosphorylation | significantly increased the number of colonies in a concentration-dependent manner | significantly increased the number of colonies in a concentration-dependent manner
